# B1: PTEN of MEFs (mouse) (enzyme, UniProt O08586 2-403, looked up)
# chain: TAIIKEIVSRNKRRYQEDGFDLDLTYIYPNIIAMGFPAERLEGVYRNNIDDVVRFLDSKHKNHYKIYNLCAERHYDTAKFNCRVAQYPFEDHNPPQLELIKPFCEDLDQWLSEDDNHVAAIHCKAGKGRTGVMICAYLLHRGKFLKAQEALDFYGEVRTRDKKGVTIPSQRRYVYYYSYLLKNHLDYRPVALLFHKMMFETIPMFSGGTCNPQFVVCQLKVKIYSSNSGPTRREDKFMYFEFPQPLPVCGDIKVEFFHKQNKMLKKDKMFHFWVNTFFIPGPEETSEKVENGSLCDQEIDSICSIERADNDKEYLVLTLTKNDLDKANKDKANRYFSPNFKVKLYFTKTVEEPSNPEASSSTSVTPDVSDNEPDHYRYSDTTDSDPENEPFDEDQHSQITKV
# notes: also called PTEN in Wwp1+/+ and Wwp1-/- MEFs; PTEN in Nedd4+/+ and Nedd4-/- MEFs
# B2: HA-PTEN (enzyme)
# chain: not shown
# notes: Expressed in DU145 cells and immunoprecipitated with anti-PTEN antibody for mass spectrometry; also called exogenous PTEN; pcDNA3-HA-PTEN; not shown: HA tag
# B3: PTEN 4E mutant (enzyme)
# chain: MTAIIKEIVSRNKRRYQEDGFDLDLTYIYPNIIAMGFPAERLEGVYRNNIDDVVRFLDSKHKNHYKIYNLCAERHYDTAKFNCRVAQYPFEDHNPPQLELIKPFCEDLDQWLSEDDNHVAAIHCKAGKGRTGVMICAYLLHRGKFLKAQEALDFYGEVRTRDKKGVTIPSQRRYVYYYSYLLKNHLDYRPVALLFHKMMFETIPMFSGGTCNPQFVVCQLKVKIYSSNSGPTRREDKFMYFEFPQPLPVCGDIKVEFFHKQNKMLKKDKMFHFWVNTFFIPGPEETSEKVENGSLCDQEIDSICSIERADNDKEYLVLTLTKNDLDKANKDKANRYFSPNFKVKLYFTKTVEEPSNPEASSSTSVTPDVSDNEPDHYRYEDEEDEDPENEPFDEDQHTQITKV
# notes: also called pcDNA3-Myc-PTEN 4E; phosphomimetic 4E; not shown: Myc tag by the plasmid list
# B4: Myc-PTEN (enzyme)
# chain: not shown
# notes: also called pcDNA3-Myc-PTEN; not shown: Myc tag
# B5: Neural Precursor Cell Expressed Developmentally Down-Regulated Protein 4 polypeptide (NEDD4-1) (enzyme)
# chain: MATCAVEVFGLLEDEENSRIVRVRVIAGIGLAKKDILGASDPYVRVTLYDPMNGVLTSVQTKTIKKSLNPKWNEEILFRVHPQQHRLLFEVFDENRLTRDDFLGQVDVPLYPLPTENPRLERPYTFKDFVLHPRSHKSRVKGYLRLKMTYLPKTSGSEDDNAEQAEELEPGWVVLDQPDAACHLQQQQEPSPLPPGWEERQDILGRTYYVNHESRRTQWKRPTPQDNLTDAENGNIQLQAQRAFTTRRQISEETESVDNRESSENWEIIREDEATMYSNQAFPSPPPSSNLDVPTHLAEELNARLTIFGNSAVSQPASSSNHSSRRGSLQAYTFEEQPTLPVLLPTSSGLPPGWEEKQDERGRSYYVDHNSRTTTWTKPTVQATVETSQLTSSQSSAGPQSQASTSDSGQQVTQPSEIEQGFLPKGWEVRHAPNGRPFFIDHNTKTTTWEDPRLKIPAHLRGKTSLDTSNDLGPLPPGWEERTHTDGRIFYINHNIKRTQWEDPRLENVAITGPAVPYSRDYKRKYEFFRRKLKKQNDIPNKFEMKLRRATVLEDSYRRIMGVKRADFLKARLWIEFDGEKGLDYGGVAREWFFLISKEMFNPYYGLFEYSATDNYTLQINPNSGLCNEDHLSYFKFIGRVAGMAVYHGKLLDGFFIRPFYKMMLHKPITLHDMESVDSEYYNSLRWILENDPTELDLRFIIDEELFGQTHQHELKNGGSEIVVTNKNKKEYIYLVIQWRFVNRIQKQMAAFKEGFFELIPQDLIKIFDENELELLMCGLGDVDVNDWREHTKYKNGYSANHQVIQWFWKAVLMMDSEKRIRLLQFVTGTSRVPMNGFAELYGSNGPQSFTVEQWGTPEKLPRAHTCFNRLDLPPYESFEELWDKLQMAIENTQGFDGVD
# notes: also called endogenous NEDD4-1; immunopurified recombinant NEDD4-1
# Experiments:
# [1] = biological target: the molecule itself; assay: self-association of PTEN in Wwp1-/- against Wwp1+/+ MEFs, non-reducing/non-denaturing gel (FIG. 5F); similar results in Nedd4-/- MEFs (FIG. 5I)
# Source text: Similar results were also obtained in Nedd4^{-/-} MEFs (FIG. 5I, FIG. 5J).
# (§1) Western Blotting and Immunoprecipitation. For western blotting, cells were lysed in RIPA buffer (Boston BioProducts) supplemented with protease (Roche) and phosphatase (Roche) inhibitor. Proteins were separated on NuPAGE 4-12% Bis-Tris gradient gels (Invitrogen), transferred to polyvinylidine difluoride membranes (Immobilon P, Millipore) and the blots were probed with the indicated antibodies. For immunoprecipitation, PC3, 293T and MEF cells were transfected with the indicated expression vectors by using LIPOFECTAMIN 2000 (Life Technologies). 24 hours after transfection, cells were lysed in RIPA buffer with protease (Roche) and phosphatase (Roche) inhibitor. 500 μg of total lysates were pre-cleared for 30 minutes at 4° C., and then immunoprecipitated with anti-Myc (Cell Signaling Technology 9B11, 1:500), or anti-PTEN (Cell Signaling Technology 9559, 1:500) antibody overnight at 4° C. The Protein-A or Protein-G sepharose beads (GE Healthcare) were then added and incubated for another 2 hours. The immunoprecipitates were washed with RIPA buffer three times. In denaturing conditions, standard Laemmli-Buffer with 5% final concentration of β-mercaptoethanol was added to the samples, which were then boiled and separated on NuPAGE 4-12% Bis-Tris gradient gels (Invitrogen). […]
# [2] = biological target: T1, WW domain containing E3 ubiquitin protein ligase 1 (WWP1) (human, UniProt Q9H0M0 1-922, limits assumed); assay: immunoprecipitation of exogenous PTEN from DU145 cells, mass spectrometry (FIG. 2A)
# T1 construct: also called endogenous WWP1; WW domain-containing protein-1
# Source text: (§2) FIG. 2A is a Western blot. Lysates from DU145 cells transfected with HA-PTEN were immunoprecipitated with an anti-PTEN antibody followed by mass-spectrometric peptide sequencing. WWP1 and NEDD4-1 were identified.
# (§3) In order to identify the E3 ligases that induce PTEN atypical K27-linked poly-ubiquitination, exogenous PTEN was immunoprecipitated from DU145 cells, followed by identification of the proteins that interacted with PTEN by mass spectrometry (FIG. 2A; FIG. 18).
# [3] = biological target: T2, ATP dependent RNA helicase A (human (endogenous protein of DU145 …, UniProt Q08211)); assay: anti-PTEN immunoprecipitation from DU145 cells transfected with HA-PTEN, SDS-PAGE, mass-spectrometric peptide sequencing of the bands (association in the precipitate)
# T2 construct: endogenous, identified by mass spectrometry
# T2 sequence (Q08211 whole entry): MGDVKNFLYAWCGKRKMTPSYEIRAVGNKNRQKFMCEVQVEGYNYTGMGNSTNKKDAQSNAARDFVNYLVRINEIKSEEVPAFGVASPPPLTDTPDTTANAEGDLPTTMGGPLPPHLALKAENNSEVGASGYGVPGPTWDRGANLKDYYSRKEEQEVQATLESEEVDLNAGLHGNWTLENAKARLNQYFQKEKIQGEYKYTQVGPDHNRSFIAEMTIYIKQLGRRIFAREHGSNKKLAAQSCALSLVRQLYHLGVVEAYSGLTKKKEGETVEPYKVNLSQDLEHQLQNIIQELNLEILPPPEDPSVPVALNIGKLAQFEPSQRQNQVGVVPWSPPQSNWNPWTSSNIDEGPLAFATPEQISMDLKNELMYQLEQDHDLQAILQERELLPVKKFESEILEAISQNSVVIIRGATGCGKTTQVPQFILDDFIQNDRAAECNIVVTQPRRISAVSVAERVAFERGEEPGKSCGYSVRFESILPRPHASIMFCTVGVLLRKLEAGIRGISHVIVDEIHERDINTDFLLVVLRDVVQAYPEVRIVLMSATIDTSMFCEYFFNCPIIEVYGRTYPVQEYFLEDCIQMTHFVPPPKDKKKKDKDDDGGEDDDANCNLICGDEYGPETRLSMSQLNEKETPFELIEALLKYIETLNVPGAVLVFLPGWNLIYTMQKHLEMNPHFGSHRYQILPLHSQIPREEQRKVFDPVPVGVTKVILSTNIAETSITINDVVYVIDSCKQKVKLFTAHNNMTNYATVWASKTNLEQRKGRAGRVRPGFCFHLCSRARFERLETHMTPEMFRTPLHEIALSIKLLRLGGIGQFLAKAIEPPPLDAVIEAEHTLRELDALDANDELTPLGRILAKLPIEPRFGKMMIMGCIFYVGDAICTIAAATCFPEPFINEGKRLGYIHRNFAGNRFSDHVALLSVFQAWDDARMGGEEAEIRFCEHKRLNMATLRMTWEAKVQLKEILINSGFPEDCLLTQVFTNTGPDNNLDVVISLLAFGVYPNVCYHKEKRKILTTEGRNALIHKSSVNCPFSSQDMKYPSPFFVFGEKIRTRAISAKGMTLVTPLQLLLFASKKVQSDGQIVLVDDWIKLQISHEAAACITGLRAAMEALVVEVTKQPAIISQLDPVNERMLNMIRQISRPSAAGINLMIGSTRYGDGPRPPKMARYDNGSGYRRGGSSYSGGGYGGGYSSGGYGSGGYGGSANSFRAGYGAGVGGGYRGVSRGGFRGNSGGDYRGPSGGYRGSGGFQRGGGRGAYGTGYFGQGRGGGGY
# Source text: as §2, §3
# [4] = biological target: T3, Poly [ADP-ribose] polymerase 1 (human (endogenous protein of DU145 …, UniProt P09874)); assay: as above
# T3 construct: endogenous, identified by mass spectrometry
# T3 sequence (P09874 2-1014 limits assumed): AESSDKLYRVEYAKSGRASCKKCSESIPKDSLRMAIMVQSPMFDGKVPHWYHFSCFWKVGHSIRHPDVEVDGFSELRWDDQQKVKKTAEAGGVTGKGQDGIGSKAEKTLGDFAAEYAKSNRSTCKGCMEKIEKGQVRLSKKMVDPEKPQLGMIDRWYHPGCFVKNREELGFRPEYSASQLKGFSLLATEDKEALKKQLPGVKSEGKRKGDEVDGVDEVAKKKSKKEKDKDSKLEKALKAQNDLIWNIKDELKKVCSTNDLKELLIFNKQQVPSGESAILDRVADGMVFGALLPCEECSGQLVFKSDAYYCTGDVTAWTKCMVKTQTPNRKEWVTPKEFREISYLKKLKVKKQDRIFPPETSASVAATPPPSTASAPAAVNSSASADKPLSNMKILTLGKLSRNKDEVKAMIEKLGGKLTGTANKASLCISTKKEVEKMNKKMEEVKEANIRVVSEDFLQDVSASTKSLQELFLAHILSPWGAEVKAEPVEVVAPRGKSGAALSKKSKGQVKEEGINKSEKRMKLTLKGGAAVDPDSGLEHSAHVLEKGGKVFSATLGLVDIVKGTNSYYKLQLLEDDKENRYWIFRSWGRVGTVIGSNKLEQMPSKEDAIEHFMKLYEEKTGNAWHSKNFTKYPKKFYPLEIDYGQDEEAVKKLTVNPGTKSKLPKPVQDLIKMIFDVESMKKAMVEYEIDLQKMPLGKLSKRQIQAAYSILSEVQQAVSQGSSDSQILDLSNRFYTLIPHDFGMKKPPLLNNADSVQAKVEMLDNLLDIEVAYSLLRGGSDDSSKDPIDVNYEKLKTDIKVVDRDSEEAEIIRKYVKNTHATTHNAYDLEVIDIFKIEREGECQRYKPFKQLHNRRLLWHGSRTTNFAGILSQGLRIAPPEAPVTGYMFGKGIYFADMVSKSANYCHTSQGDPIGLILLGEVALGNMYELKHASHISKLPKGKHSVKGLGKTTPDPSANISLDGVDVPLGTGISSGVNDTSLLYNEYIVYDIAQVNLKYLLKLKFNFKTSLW
# Source text: as §2, §3
# [5] = biological target: Isoform 2 of Telomere-associated protein RIF1; assay: as above
# Sequence of Isoform 2 of Telomere-associated protein RIF1 (chain, as listed by the source limits assumed): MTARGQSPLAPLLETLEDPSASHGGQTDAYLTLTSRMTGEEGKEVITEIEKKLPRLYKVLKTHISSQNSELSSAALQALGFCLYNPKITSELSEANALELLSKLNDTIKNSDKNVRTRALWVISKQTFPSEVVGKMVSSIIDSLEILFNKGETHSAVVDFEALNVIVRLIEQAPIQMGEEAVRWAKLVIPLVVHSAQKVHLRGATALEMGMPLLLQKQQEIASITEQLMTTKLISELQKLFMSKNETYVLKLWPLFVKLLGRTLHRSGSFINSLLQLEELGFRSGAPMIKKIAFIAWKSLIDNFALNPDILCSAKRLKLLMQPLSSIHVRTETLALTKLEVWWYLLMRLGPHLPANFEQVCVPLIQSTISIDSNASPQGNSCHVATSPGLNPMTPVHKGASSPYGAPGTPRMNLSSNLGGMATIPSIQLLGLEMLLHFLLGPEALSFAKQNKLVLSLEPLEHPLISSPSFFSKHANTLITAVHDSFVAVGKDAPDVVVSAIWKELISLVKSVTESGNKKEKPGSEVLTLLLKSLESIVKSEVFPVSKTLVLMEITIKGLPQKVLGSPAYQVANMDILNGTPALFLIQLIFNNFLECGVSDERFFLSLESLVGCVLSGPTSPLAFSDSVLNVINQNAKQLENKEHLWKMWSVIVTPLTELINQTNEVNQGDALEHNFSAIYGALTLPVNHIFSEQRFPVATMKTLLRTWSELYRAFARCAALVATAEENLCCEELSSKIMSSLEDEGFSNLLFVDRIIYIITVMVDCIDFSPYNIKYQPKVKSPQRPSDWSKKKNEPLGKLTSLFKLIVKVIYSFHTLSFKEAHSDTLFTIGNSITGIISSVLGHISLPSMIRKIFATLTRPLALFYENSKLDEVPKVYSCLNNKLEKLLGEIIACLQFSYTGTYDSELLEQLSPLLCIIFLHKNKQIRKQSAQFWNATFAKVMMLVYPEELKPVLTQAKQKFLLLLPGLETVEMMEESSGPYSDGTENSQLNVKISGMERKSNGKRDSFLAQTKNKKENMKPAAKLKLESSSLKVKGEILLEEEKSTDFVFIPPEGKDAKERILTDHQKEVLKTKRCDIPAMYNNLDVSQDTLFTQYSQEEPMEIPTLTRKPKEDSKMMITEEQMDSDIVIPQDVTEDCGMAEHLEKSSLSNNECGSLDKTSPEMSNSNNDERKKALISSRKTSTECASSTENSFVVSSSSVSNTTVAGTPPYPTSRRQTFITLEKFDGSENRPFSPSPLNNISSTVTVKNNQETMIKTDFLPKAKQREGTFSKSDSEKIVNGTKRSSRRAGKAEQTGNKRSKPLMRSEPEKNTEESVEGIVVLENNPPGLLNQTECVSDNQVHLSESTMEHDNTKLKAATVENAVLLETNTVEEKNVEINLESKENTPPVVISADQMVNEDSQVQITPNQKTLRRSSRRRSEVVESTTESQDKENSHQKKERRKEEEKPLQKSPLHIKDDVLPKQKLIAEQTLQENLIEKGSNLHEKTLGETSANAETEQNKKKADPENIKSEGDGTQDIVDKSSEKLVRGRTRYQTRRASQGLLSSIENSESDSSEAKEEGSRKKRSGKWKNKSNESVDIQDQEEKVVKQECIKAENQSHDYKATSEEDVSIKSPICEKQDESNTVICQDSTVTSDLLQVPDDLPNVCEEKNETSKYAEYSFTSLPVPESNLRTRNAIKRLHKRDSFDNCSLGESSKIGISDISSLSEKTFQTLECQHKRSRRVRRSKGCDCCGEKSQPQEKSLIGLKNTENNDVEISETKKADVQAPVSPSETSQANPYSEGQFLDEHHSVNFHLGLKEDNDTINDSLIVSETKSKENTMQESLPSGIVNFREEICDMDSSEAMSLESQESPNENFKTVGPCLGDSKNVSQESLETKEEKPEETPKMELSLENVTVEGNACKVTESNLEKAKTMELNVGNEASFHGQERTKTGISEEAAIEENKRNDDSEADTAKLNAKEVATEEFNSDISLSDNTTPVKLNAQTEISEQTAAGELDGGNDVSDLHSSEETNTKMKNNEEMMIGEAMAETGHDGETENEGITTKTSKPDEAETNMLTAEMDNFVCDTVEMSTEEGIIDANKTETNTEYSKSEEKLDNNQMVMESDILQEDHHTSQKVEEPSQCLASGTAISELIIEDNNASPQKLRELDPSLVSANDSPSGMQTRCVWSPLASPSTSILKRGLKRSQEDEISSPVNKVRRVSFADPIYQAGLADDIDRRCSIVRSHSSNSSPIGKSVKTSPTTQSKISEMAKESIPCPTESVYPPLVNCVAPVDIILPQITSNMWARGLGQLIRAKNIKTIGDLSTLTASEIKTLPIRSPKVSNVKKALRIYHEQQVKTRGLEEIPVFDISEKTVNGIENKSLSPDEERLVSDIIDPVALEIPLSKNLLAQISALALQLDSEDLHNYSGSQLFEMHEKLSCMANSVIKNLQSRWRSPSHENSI
# Source text: as §2, §3
# [6] = biological target: T4, Sperm-associated antigen 5 (human (endogenous protein of DU145 …, UniProt Q96R06)); assay: as above
# T4 construct: endogenous, identified by mass spectrometry
# T4 sequence (looked up): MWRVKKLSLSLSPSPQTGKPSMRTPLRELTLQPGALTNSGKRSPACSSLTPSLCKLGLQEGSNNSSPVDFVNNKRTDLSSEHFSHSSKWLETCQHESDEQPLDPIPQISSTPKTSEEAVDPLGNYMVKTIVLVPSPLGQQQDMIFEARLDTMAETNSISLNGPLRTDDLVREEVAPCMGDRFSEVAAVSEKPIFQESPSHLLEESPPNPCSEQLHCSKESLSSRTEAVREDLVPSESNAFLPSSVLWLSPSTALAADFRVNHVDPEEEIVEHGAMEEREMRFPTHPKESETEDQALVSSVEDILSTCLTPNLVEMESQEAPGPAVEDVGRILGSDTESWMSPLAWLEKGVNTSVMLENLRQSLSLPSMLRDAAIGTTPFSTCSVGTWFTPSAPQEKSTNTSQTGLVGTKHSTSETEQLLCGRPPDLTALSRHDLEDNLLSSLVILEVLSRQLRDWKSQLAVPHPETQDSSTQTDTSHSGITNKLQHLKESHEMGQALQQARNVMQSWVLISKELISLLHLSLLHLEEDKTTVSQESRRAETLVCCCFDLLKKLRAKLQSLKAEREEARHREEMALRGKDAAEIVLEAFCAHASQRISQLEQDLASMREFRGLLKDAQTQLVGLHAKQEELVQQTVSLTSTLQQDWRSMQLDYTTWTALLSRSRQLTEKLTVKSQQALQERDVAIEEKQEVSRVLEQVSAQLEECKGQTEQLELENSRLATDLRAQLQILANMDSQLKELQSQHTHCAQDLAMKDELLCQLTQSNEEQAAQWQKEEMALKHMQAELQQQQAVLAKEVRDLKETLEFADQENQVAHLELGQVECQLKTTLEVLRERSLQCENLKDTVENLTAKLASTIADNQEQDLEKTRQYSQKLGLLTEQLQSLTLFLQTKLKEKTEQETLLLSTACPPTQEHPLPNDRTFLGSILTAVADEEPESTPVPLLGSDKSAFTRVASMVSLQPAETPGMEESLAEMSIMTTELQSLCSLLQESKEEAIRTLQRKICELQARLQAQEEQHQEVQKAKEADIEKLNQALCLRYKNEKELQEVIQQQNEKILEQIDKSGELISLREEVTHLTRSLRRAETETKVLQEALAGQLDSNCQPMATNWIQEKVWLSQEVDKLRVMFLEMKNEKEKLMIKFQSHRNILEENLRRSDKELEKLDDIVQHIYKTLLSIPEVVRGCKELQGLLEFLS
# Source text: as §2, §3
# Flag-WWP1 [7] = biological target: T5, Flag-WWP1 (Homo sapiens (Human), UniProt Q9H0M0 1-922); assay: co-immunoprecipitation: IP Flag, WB PTEN
# T5 construct: also called full-length Flag-WWP1; recombinant Flag-WWP1; not shown: Flag tag
# [8] = biological target: T6, Flag-WWP1 ΔWW domain (deletion 341-547) (Homo sapiens (Human), UniProt Q9H0M0 1-922); assay: co-immunoprecipitation from 293 cells: IP Flag, WB PTEN
# T6 construct: The two kept ranges are counted on the 922-residue WWP1 entry; not shown: Flag tag
# T6 sequence: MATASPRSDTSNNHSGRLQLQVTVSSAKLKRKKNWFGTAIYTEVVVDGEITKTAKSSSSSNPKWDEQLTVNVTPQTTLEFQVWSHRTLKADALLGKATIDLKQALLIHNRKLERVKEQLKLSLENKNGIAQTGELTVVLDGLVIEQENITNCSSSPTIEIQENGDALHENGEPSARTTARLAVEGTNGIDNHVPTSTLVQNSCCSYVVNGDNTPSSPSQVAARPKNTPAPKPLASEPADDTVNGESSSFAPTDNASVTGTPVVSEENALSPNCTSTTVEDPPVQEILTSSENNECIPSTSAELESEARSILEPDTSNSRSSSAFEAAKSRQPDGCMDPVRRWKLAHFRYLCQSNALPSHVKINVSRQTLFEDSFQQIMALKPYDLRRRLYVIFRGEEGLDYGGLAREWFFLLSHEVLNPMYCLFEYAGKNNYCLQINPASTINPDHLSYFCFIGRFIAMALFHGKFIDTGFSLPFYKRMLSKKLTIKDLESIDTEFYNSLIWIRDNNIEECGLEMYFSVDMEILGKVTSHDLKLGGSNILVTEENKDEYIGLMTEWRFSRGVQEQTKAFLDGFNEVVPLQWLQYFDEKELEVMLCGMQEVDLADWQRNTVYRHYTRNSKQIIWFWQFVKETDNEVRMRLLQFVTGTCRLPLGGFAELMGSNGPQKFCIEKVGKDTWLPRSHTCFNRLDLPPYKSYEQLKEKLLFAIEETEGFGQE
# Protocol: Lysates of 293 cells transfected with indicated constructs were analysed by immunoprecipitation and/or western blot with indicated antibodies.
# as §1, with “times.” for “times. In denaturing conditions, standard Laemmli-Buffer with 5% final concentration of β-mercaptoethanol was added to the samples, which were then boiled and separated on NuPAGE 4-12% Bis-Tris gradient gels (Invitrogen).”
# Flag-WWP1 [9] = biological target: T5, Flag-WWP1; assay: recombinant Flag-WWP1 incubated with immunopurified recombinant NEDD4-1, western blot (FIG. 2C)
# Protocol: FIG. 2C is a Western blot showing that WWP1 binds NEDD4-1 in vitro. Recombinant Flag-WWP1 were incubated with immunopurified recombinant NEDD4-1, and then analysed by western blot.
# [10] = biological target: T1, WW domain containing E3 ubiquitin …; assay: anti-PTEN immunoprecipitation from DU145 cells, western blot (FIG. 2B); both ligases found in the same complex
# [11] = biological target: T7, Phosphatase And Tensin Homolog Deleted On Chromosome Ten (PTEN) (human, UniProt P60484 1-403); assay: co-immunoprecipitation with anti-NEDD4 antibody from PWRE-1 cell lysates after 16 h normoxia (N) or hypoxia (H), western blot
# T7 construct: also called endogenous PTEN; PTEN WT
# Protocol: FIG. 13D is a Western blot showing that NEDD4-1 switches its interaction proteins under different physiological conditions. PWRE-1 cells were cultured in normoxic or hypoxic conditions for 16 hours. Total cell lysates were immunoprecipitated with anti-NEDD4 antibody, and then examined by western blot with indicated antibodies.
# as §1, with “times.” for “times. In denaturing conditions, standard Laemmli-Buffer with 5% final concentration of β-mercaptoethanol was added to the samples, which were then boiled and separated on NuPAGE 4-12% Bis-Tris gradient gels (Invitrogen).”
binder,measurement,setting,value
B1,binding result,[1],binds
B2,binding result,[2],binds
same,binding result,[3],binds
same,binding result,[4],binds
same,binding result,[5],binds
same,binding result,[6],binds
B3,binding result,Flag-WWP1 [7],no binding
B4,binding result,[8],no binding
B5,binding result,Flag-WWP1 [9],binds
same,binding result,[10],binds
same,binding result,[11],binds
